Source: paper PMC7026407, “Multiple Growth Factor Targeting by Engineered Insulin-like Growth Factor Binding Protein-3 Augments EGF Receptor Tyrosine Kinase Inhibitor Efficacy” (Scientific Reports, 2020)

T1: IGFBP-7 (UniProt Q16270 27-282)
T1 sequence (looked up): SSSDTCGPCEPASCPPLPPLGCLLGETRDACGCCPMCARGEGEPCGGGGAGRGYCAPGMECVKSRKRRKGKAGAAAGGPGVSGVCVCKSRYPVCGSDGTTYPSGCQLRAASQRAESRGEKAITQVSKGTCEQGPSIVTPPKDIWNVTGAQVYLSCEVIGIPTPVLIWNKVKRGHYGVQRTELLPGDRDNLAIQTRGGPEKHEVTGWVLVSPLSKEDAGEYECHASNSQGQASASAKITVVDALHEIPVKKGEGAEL

T2: IGFBP-2 (UniProt P18065 36-325)
T2 sequence (looked up): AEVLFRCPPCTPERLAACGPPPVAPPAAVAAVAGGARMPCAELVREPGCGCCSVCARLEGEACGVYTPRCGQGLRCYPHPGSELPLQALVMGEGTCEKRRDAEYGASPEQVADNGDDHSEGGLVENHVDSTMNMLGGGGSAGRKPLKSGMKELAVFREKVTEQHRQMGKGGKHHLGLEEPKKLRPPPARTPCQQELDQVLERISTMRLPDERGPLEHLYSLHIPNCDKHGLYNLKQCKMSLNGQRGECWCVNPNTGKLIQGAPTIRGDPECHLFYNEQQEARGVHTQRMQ

B1: IGFBP-7 (natural protein, UniProt Q16270 27-282, looked up)
chain: T1 sequence (looked up)
notes: source: bought (commercially available, carrier-free)
B2: PDGF BB (ligand, UniProt P01127 82-190, looked up)
chain: SLGSLTIAEPAMIAECKTRTEVFEISRRLIDRTNANFLVWPPCVEVQRCSGCCNNRNVQCRPTQVQLRPVQVRKIEIVRKKPIFKKATVTLEDHLACKCETVAAARPVT
notes: platelet-derived growth factor B chain; Homodimer of B chains by its name
B3: D3 (Fc fusion)
chain: GASSAGLGPVVRCEPCDARALAQCAPPPAVCAELVREPGCGCCLTCALSEGQPCGIYTERCGSGLRCQPSPDEARPLQALLDGRGLCVNASAVSRPAPPAPGNASESEEDRSAGSVESPSVSSTHRVSDPKFHPKGHAKVDYESQSTDTQNFSSESKRETEYGPCRREMEDTLNHLKFLNVLSPRGVHIPNCDKKGFYKKKQCRPSKGRKRGFCWCVDKYGQPLPGYTTKGKEDVHCYSMQSK
modifications: Secreted Fc-fusion dimer; Fc omitted. Deletions 121-126, 166-174 and 180-185 are in 56662 precursor numbering (UniProt = construct + 2). The IGFBP-2 signal peptide is removed.
B4: D3 (Fc fusion)
chain: B3 chain
modifications: Secreted Fc-fusion dimer; Fc omitted. Deletions 121-126, 166-174 and 180-185 are in 56662 precursor numbering (UniProt = construct + 2; the offset agrees with the H3t33-type deletion printed in …)
B5: VEGF-B (ligand, UniProt P49765 22-207, looked up)
chain: PVSQPDAPGHQRKVVSWIDVYTRATCQPREVVVPLTVELMGTVAKQLVPSCVTVQRCGGCCPDDGLECVPTGQHQVRMQILMIRYPSSQLGEMSLEEHSQCECRPKKKDSAVKPDRAATPHHRPQPRSVPGWDSAPGAPSPADITHPTPAPGPSAHAAPSTTSALTPGPAAAAADAAASSVAKGGA
notes: vascular endothelial growth factor B
B6: neuregulin-1 (ligand)
chain: SERKEGRGKGKGKKKERGSGKKPESAAGSQSPALPPRLKEMKSQESAAGSKLVLRCETSSEYSSLRFKWFKNGNELNRKNKPQNIKIQKKPGKSELRINKASLADSGEYMCKVISKLGNDSASANITIVESNEIITGMPASTEGAYVSSESPIRISVSTEGANTSSSTSTSTTGTSHLVKCAEKEKTFCVNGGECFMVKDLSNPSRYLCKCPNEFTGDRCQNYVMASFYKHLGIEFMEAEELYQK
modifications: R&D 377-HB, neuregulin extracellular domain, taken as NRG1-beta1 Ser2-Lys246; the paper prints only the catalogue number and 'extracellular domain'.
B7: PDGF BB (ligand, UniProt P01127 82-190, looked up)
chain: B2 chain
notes: platelet-derived growth factor B chain

Columns and labels:
Conditions in all cases: both partners purified
[1] = molecular target: T3, hepatocyte growth factor (UniProt P14210 32-728); test: SPR; IGF binding protein or Fc fusion amine-coupled to a CM4 chip, growth factor as analyte; Biacore T100 or T200, HBS-P, BSA (0.2 mg/ml) or NaCl (0.65 M final) to reduce non-specific binding, 25 °C; 1:1 binding analysis
T3 construct: hepatocyte growth factor, commercial; Mature HGF is a two-chain (alpha/beta) product of one precursor; the preparation is said to hold both processed and unprocessed forms; also called HGF; source: expressed in insect cells
T3 sequence (P14210 32-728): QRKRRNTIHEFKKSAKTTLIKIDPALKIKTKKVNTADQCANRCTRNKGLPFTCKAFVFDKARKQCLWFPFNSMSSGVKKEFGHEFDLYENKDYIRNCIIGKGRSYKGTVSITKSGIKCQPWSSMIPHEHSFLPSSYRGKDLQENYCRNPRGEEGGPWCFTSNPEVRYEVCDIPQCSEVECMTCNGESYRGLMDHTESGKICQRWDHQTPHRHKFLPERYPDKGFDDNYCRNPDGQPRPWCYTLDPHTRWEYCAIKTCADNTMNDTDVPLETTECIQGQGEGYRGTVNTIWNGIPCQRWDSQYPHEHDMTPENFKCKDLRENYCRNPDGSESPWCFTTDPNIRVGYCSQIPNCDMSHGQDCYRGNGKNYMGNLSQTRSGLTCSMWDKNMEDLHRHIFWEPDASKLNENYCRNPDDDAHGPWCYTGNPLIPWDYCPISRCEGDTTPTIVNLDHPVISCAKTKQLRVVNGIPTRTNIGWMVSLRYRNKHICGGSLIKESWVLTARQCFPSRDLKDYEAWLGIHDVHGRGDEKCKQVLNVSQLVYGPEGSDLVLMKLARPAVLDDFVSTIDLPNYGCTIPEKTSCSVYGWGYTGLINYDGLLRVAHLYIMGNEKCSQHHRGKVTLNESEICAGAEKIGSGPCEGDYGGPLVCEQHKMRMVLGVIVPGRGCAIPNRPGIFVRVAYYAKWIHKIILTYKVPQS

[2] = molecular target: T4, 56662 (UniProt P17936-1 28-291); test: as above
T4 construct: the secretory signal peptide was derived from IGFBP-2; Fc portion of IgG1 added to the C terminus of IGFBP-3; called an Fc dimer; Probably the mature IGFBP-3 after removal of the IGFBP-2 signal peptide; also called IGFBP-3-Fc; BP3-Fc (unmodified IGFBP-3 Fc construct); source: 293 T cells, transfected; conditioned medium purified by proteinA Sepharose; not shown: Fc (IgG1), C-terminal, kept

[3] = molecular target: T4, 56662; test: SPR; growth factor immobilised on a CM4 chip instead of the binding protein (asterisk in Table 1), binding protein or Fc fusion as analyte; HBS-P, 25 °C; regeneration with 4 M MgCl2 then 5 M guanidinium chloride; 1:1 binding analysis
[4] = molecular target: T5, insulin-like growth factor-2 (UniProt P01344 25-91); test: SPR; IGF binding protein or Fc fusion amine-coupled to a CM4 chip, growth factor as analyte; Biacore T100 or T200, HBS-P, BSA (0.2 mg/ml) or NaCl (0.65 M final) to reduce non-specific binding, 25 °C; 1:1 binding analysis
T5 construct: insulin-like growth factor 2, commercial growth factor; also called IGF2; IGF-2
T5 sequence (P01344 25-91): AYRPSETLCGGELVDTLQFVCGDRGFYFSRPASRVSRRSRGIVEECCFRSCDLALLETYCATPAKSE

[5] = molecular target: T6, insulin-like growth factor-1 (UniProt P05019 49-118); test: as above
T6 construct: insulin-like growth factor 1, commercial growth factor; also called IGF1; IGF-1
T6 sequence (P05019 49-118): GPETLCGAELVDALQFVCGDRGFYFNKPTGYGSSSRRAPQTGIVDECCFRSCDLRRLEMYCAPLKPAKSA

[6] = molecular target: B5; test: SPR; growth factor amine-coupled to a CM4 chip, Fc fusion as analyte (values marked * in Table 1); Biacore T100/T200; HBS-P, with 0.2 mg/ml BSA or 0.65 M NaCl to reduce non-specific binding; 25 °C; 1:1 binding fit
[7] = molecular target: B7; test: as above
[8] = molecular target: T7, bFGF (UniProt P09038 143-288); test: as above
T7 construct: basic fibroblast growth factor; also called basic FGF

[9] = molecular target: neuregulin-1 (UniProt Q02297 20-241); test: as above
[10] = molecular target: T8, hepatocyte growth factor (UniProt P14210 32-728); test: as above
T8 construct: hepatocyte growth factor; also called HGF; source: bought
T8 sequence (P14210 32-728): as the sequence (P14210 32-728) above

[11] = molecular target: T9, insulin-like growth factor-1 (UniProt P05019 49-118); test: SPR; IGF binding protein or Fc fusion amine-coupled to a CM4 chip, growth factor as analyte; Biacore T100/T200; HBS-P, with 0.2 mg/ml BSA or 0.65 M NaCl to reduce non-specific binding; 25 °C; 1:1 binding fit
T9 construct: insulin-like growth factor 1; also called IGF1; IGF-1
T9 sequence (P05019 49-118): as the sequence (P05019 49-118) above

[12] = molecular target: T10, insulin-like growth factor-2 (UniProt P01344 25-91); test: as above
T10 construct: insulin-like growth factor 2; also called IGF2; IGF-2
T10 sequence (P01344 25-91): as the sequence (P01344 25-91) above

[13] = molecular target: IGFBP-3 (UniProt P17936 28-291); test: as above
[14] = molecular target: T1, IGFBP-7; test: as above
[15] = molecular target: T2, IGFBP-2; test: as above
[16] = molecular target: T11, 56662 (UniProt P17936-1 28-291); test: as above
T11 construct: Fc dimer; also called BP3-Fc; IGFBP-3-Fc; source: 293T cells, transfected, conditioned medium, purified (protein A Sepharose); not shown: Fc (IgG1), C-terminal, kept

[17] = molecular target: T12, Chimera A; test: SPR; growth factor amine-coupled to a CM4 chip, Fc fusion as analyte (values marked * in Table 1); Biacore T100/T200; HBS-P, with 0.2 mg/ml BSA or 0.65 M NaCl to reduce non-specific binding; 25 °C; 1:1 binding fit
T12 construct: VEGF receptor 1 domain 2, first part of VEGF-trap; VEGF receptor 2 domain 3, second part of VEGF-trap; VEGF-trap inserted between the IGFBP-3 and the Fc domain; Fc dimer; also called chA; BP3-VEGF-trap-Fc; source: 293T cells, transfected, conditioned medium, purified (protein A Sepharose); not shown: Fc (IgG1), C-terminal, kept

[18] = molecular target: T11, 56662; test: as above

T7 sequence (P09038 143-288): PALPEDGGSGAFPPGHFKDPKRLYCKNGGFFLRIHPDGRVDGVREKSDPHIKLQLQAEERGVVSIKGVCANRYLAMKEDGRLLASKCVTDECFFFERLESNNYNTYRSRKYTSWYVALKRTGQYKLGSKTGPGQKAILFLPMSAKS
Chain of neuregulin-1 (Q02297 20-241): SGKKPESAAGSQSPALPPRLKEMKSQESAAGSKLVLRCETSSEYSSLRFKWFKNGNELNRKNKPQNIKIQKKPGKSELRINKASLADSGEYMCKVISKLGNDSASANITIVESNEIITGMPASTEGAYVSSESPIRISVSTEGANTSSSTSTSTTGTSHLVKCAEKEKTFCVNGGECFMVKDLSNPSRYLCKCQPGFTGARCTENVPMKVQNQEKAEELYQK
T12 sequence (Q02297 20-241, stated change not applied): as the sequence (Q02297 20-241) above

B1
binding result [1]: binds

B2
Kd [2]: 0.52 nM
Kd [3]: 4.19 nM

B3
Kd [4]: 0.22 nM
Kd [5]: 0.51 nM

B4
koff [6]: 0.000445 s⁻¹
kon [6]: 25000 M⁻¹ s⁻¹
koff [7]: 0.00175 s⁻¹
kon [7]: 550000 M⁻¹ s⁻¹
koff [8]: 0.000529 s⁻¹
kon [8]: 161000 M⁻¹ s⁻¹
koff [9]: 0.00053 s⁻¹
kon [9]: 270000 M⁻¹ s⁻¹
koff [10]: 0.000291 s⁻¹
kon [10]: 110000 M⁻¹ s⁻¹
koff [11]: 8.36e-05 s⁻¹
kon [11]: 163000 M⁻¹ s⁻¹
koff [12]: 0.00185 s⁻¹
kon [12]: 8.25e+06 M⁻¹ s⁻¹

B5
koff [13]: 0.000751 s⁻¹
kon [13]: 96600 M⁻¹ s⁻¹
koff [14]: 0.00277 s⁻¹
kon [14]: 875000 M⁻¹ s⁻¹
koff [15]: 0.000441 s⁻¹
kon [15]: 157000 M⁻¹ s⁻¹
koff [16]: 0.000284 s⁻¹
kon [16]: 45000 M⁻¹ s⁻¹

B6
koff [17]: 0.000291 s⁻¹
kon [17]: 394000 M⁻¹ s⁻¹
koff [18]: 0.00443 s⁻¹
kon [18]: 481000 M⁻¹ s⁻¹
koff [13]: 0.000883 s⁻¹
kon [13]: 425000 M⁻¹ s⁻¹
koff [14]: 0.00129 s⁻¹
kon [14]: 800 M⁻¹ s⁻¹

B7
koff [18]: 0.000562 s⁻¹
kon [18]: 259000 M⁻¹ s⁻¹
